Data published in the PETadex activity labels (doi:10.1186/s13568-014-0044-9).

B1: unnamed (protein)
chain: MKRTLKRALSLLPAAALAASALVAASPAQAAANPYQRGPNPTEASITAARGPFNTAEITVSRLSVSGFGGGKIYYPTTTSEGTFGAIAISPGFTAYWSSLEWLGHRLASQGFVVIGIETNTTLDQPDQRGQQLLAALDYLTQRSAVRDRVDASRLAVAGHSMGGGGSLEAAKARTSLKAAIPLAPWNLDKTWPEVRTPTLIIGGELDAVAPVATHSIPFYNSLSNAPEKAYLELDNASHFFPNITNTQMAKYMIAWMKRFIDDDTRYTQFLCPPPSTGLLSDFSDARFTCPM
B2: unnamed (protein)
chain: MSLRKSFGLLSATAALVAGLVAAPPAQAAANPYQRGPDPTESLLRAARGPFAVSEQSVSRLSVSGFGGGRIYYPTTTSQGTFGAIAISPGFTASWSSLAWLGPRLASHGFVVIGIETNTRLDQPDSRGRQLLAALDYLTQRSSVRNRVDASRLAVAGHSMGGGGTLEAAKSRTSLKAAIPIAPWNLDKTWPEVRTPTLIIGGELDSIAPVATHSIPFYNSLTNAREKAYLELNNASHFFPQFSNDTMAKFMISWMKRFIDDDTRYDQFLCPPPRAIGDISDYRDTCPHT

What follows are proteins tested on p-NP-C4 (assay: not given). Settings: pH 8.5; 25 °C.
B1 was tested, and the Km was 83 µM, the kcat was 12.4 s⁻¹ and the kcat/Km was 149000 M⁻¹ s⁻¹.
In the case of B2, the Km is reported as 88.8 µM, the kcat is reported as 2.3 s⁻¹ and the kcat/Km is reported as 25900 M⁻¹ s⁻¹.

What follows are proteins tested on pNPB (assay: Proxy for plastic degradation [Km]). Settings: pH 8.5.
In the case of B1, the “Proxy for plastic degradation” value is reported as 83.1 µM.
B2 was tested, and the “Proxy for plastic degradation” value was 88.8 µM.

Each protein was assayed on pNPB (assay: Proxy for plastic degradation [kcat] (s⁻¹)). Settings: pH 8.5.
With B1 the “Proxy for plastic degradation” value was 12.4.
With B2 the “Proxy for plastic degradation” value was 2.3.

Same assay, conditions: pH 8.5; 25 °C
In the case of B1, the “Proxy for plastic degradation” value is reported as 12.4.
In the case of B2, the “Proxy for plastic degradation” value is reported as 2.3.

Each protein was assayed on pNPB (assay: Proxy for plastic degradation [Residual activity]). Settings: pH 8.5; 50 °C; 0 h.
In the case of B1, the “Proxy for plastic degradation” value is reported as 100%.
For B2, the “Proxy for plastic degradation” value was 100%.

Same assay, conditions: pH 8.5; 50 °C; 10 h
In the case of B1, the “Proxy for plastic degradation” value is reported as 85%.
B2 was tested, and the “Proxy for plastic degradation” value was 100%.

Same assay, conditions: pH 8.5; 50 °C; 20 h
For B1, the “Proxy for plastic degradation” value was 75%.
B2 was tested, and the “Proxy for plastic degradation” value was 105%.

Same assay, conditions: pH 8.5; 50 °C; 30 h
B1 was tested, and the “Proxy for plastic degradation” value was 70%.
With B2 the “Proxy for plastic degradation” value was 110%.

Same assay, conditions: pH 8.5; 50 °C; 45 h
For B1, the “Proxy for plastic degradation” value was 45%.
B2 was tested, and the “Proxy for plastic degradation” value was 115%.

Same assay, conditions: pH 8.5; 50 °C; 60 h
For B1, the “Proxy for plastic degradation” value was 40%.
In the case of B2, the “Proxy for plastic degradation” value is reported as 114%.

Same assay, conditions: pH 8.5; 55 °C; 0 h
In the case of B1, the “Proxy for plastic degradation” value is reported as 100%.
With B2 the “Proxy for plastic degradation” value was 100%.

Same assay, conditions: pH 8.5; 55 °C; 10 h
For B1, the “Proxy for plastic degradation” value was 15%.
B2 was tested, and the “Proxy for plastic degradation” value was 103%.

Same assay, conditions: pH 8.5; 55 °C; 20 h
For B1, the “Proxy for plastic degradation” value was 15%.
B2 was tested, and the “Proxy for plastic degradation” value was 95%.

Same assay, conditions: pH 8.5; 55 °C; 30 h
B1 was tested, and the “Proxy for plastic degradation” value was 15%.
With B2 the “Proxy for plastic degradation” value was 90%.

Same assay, conditions: pH 8.5; 55 °C; 45 h
B1 was tested, and the “Proxy for plastic degradation” value was 14%.
With B2 the “Proxy for plastic degradation” value was 89%.

Same assay, conditions: pH 8.5; 55 °C; 60 h
For B1, the “Proxy for plastic degradation” value was 15%.
With B2 the “Proxy for plastic degradation” value was 80%.

Same assay, conditions: pH 8.5; 60 °C; 0 h
With B1 the “Proxy for plastic degradation” value was 100%.
In the case of B2, the “Proxy for plastic degradation” value is reported as 100%.

Same assay, conditions: pH 8.5; 60 °C; 10 h
In the case of B1, the “Proxy for plastic degradation” value is reported as 15%.
With B2 the “Proxy for plastic degradation” value was 35%.

Same assay, conditions: pH 8.5; 60 °C; 20 h
B1 was tested, and the “Proxy for plastic degradation” value was 15%.
For B2, the “Proxy for plastic degradation” value was 32%.

Same assay, conditions: pH 8.5; 60 °C; 30 h
For B1, the “Proxy for plastic degradation” value was 15%.
With B2 the “Proxy for plastic degradation” value was 30%.

Same assay, conditions: pH 8.5; 60 °C; 45 h
For B1, the “Proxy for plastic degradation” value was 15%.
B2 was tested, and the “Proxy for plastic degradation” value was 25%.

Same assay, conditions: pH 8.5; 60 °C; 60 h
With B1 the “Proxy for plastic degradation” value was 14%.
In the case of B2, the “Proxy for plastic degradation” value is reported as 25%.

What follows are proteins tested on pNPB (assay: Proxy for plastic degradation [Relative activity]). Settings: 30 °C.
For B1, the “Proxy for plastic degradation” value was 25%.
With B2 the “Proxy for plastic degradation” value was 35%.

Same assay, conditions: 40 °C
For B1, the “Proxy for plastic degradation” value was 40%.
In the case of B2, the “Proxy for plastic degradation” value is reported as 50%.

Same assay, conditions: 50 °C
In the case of B1, the “Proxy for plastic degradation” value is reported as 75%.
B2 was tested, and the “Proxy for plastic degradation” value was 70%.

Same assay, conditions: 55 °C
With B1 the “Proxy for plastic degradation” value was 100%.
For B2, the “Proxy for plastic degradation” value was 85%.

Same assay, conditions: 60 °C
In the case of B1, the “Proxy for plastic degradation” value is reported as 80%.
For B2, the “Proxy for plastic degradation” value was 100%.

Same assay, conditions: 65 °C
For B1, the “Proxy for plastic degradation” value was 50%.
B2 was tested, and the “Proxy for plastic degradation” value was 70%.

Same assay, conditions: 70 °C
For B1, the “Proxy for plastic degradation” value was 10%.
In the case of B2, the “Proxy for plastic degradation” value is reported as 35%.

Same assay, conditions: pH 6.5
In the case of B1, the “Proxy for plastic degradation” value is reported as 10%.
With B2 the “Proxy for plastic degradation” value was 10%.

Same assay, conditions: pH 7
In the case of B1, the “Proxy for plastic degradation” value is reported as 22%.
With B2 the “Proxy for plastic degradation” value was 22%.

Same assay, conditions: pH 7.5
In the case of B1, the “Proxy for plastic degradation” value is reported as 55%.
In the case of B2, the “Proxy for plastic degradation” value is reported as 50%.

Same assay, conditions: pH 8
With B1 the “Proxy for plastic degradation” value was 95%.
B2 was tested, and the “Proxy for plastic degradation” value was 85%.

Same assay, conditions: pH 8.5
B1 was tested, and the “Proxy for plastic degradation” value was 100%.
For B2, the “Proxy for plastic degradation” value was 100%.

Same assay, conditions: pH 9
B1 was tested, and the “Proxy for plastic degradation” value was 90%.
B2 was tested, and the “Proxy for plastic degradation” value was 95%.

Same assay, conditions: pH 9.5
In the case of B1, the “Proxy for plastic degradation” value is reported as 65%.
For B2, the “Proxy for plastic degradation” value was 75%.
